Results taken from patent publication US20140256041A1.

Target: Human GPR49 (LGR5), full length, on cells (human) (UniProt O75473)
Experiment: cell-based or functional assay

Human GPR49 (LGR5), full length, on cells (human), sequence (O75473 22-907 limits assumed): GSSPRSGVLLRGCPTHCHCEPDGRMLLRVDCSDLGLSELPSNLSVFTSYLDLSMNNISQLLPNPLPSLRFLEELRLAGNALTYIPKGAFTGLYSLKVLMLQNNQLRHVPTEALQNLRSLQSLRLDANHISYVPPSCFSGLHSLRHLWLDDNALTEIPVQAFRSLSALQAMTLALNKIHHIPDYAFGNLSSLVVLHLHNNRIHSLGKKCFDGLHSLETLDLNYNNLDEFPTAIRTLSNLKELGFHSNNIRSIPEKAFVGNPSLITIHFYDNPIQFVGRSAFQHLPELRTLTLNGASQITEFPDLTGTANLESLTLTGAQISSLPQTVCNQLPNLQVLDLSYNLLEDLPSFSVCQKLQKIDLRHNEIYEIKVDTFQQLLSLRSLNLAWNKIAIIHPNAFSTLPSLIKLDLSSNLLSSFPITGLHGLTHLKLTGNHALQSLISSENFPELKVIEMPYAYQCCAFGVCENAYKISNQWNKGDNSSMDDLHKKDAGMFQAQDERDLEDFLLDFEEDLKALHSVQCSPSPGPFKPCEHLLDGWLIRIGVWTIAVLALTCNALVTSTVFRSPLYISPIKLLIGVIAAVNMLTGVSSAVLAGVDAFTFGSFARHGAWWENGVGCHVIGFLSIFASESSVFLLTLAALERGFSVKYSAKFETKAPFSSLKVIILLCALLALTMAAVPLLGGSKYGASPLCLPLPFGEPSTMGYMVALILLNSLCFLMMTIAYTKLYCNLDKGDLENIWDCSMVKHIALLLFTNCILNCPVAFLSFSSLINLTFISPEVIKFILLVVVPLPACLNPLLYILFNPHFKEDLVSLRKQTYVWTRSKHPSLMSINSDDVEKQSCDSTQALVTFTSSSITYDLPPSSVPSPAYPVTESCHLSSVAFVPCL

R-spondin 1 (ligand)
increase in proliferation, GPR49-3T3 clone 28: 4 fold
